Laboratory results from patent US20130344085A1 (published 2013).

Columns and labels:
biotinylated human PCSK9 = biotinylated human PCSK9 (UniProt Q8NBP7 31-692, biotinylated (sites not given)); experiment: competition binding ELISA (PCSK9-LDLR)
[1] = target: Human PCSK9 (Genbank EF692496) containing a histidine (His)8 C-terminal tag (UniProt Q8NBP7 31-692); experiment: BIAcore SPR
murine PCSK9 = experiment: BIAcore SPR
rhesus PCSK9 = experiment: BIAcore SPR
Rat PCSK9 = experiment: BIAcore SPR
Cyno PCSK9 = experiment: BIAcore SPR

Binder | IC50 (biotinylated human PCSK9) [nM] | Kd [1] [nM] | Kd (murine PCSK9) [nM] | further results
anti-PCSK9 antibody 508.20.84 (antibody, V domains shown) VH: EVQLVESGGGLVQPGGSLRLSCAASGFTFTGYAIHWVRQAPGKGLEWVARISPANGNTNYADSVKGRFTISADTSKNTAYLQMNSLRAEDTAVYYCARWIGSRELYIMDYWGQGTLVTVSS VL: DIQMTQSPSSLSASVGDRVTITCRASQDVSTAVAWYQQKPGKAPKLLIYSASFLYSGVPSRFSGSGSGTDFTLTISSLQPEDFATYYCQQSYPAPSTFGQGTKVEIK | 1.39 | 0.481 | – | –
YW508.20.33b reformatted into human IgG1 having a heavy chain with SEQ ID NO: 35 and a light chain with SEQ ID NO: 36 (antibody, V domains shown) VH: EVQLVESGGGLVQPGGSLRLSCAASGFTFSSTAIHWVRQAPGKGLEWVARISPANGNTNYADSVKGRFTISADTSKNTAYLQMNSLRAEDTAVYYCARWIGSRELYIMDYWGQGTLVTVSS VL: DIQMTQSPSSLSASVGDRVTITCRASQDVSTAVAWYQQKPGKAPKLLIYSASFLYSGVPSRFSGSGSGTDFTLTISSLQPEDFATYYCQQAYPALHTFGQGTKVEIKR | 1.31 | 0.408 | – | –
anti-PCSK9 antibody 508.20.06 (antibody, V domains shown) VH: EVQLVESGGGLVQPGGSLRLSCAASGFTFTGYAIHWVRQAPGKGLEWVARISPANGNTNYADSVKGRFTISADTSKNTAYLQMNSLRAEDTAVYYCARWIGSRELYIMDYWGQGTLVTVSS VL: DIQMTQSPSSLSASVGDRVTITCRASQDVSTAVAWYQQKPGKAPKLLIYSASFLYSGVPSRFSGSGSGTDFTLTISSLQPEDFATYYCQQSYPSPATFGQGTKVEIK | 1 | 0.628 | – | –
YW508.20.06 (antibody, V domains shown) VH: EVQLVESGGGLVQPGGSLRLSCAASGFTFTGYAIHWVRQAPGKGLEWVARISPANGNTNYADSVKGRFTISADTSKNTAYLQMNSLRAEDTAVYYCARWIGSRELYIMDYWGQGTLVTVSS VL: DIQMTQSPSSLSASVGDRVTITCRASQDVSTAVAWYQQKPGKAPKLLIYSASFLYSGVPSRFSGSGSGTDFTLTISSLQPEDFATYYCQQSYPSPATFGQGTKVEIK | – | – | 0.201 | –
YW508.20.04b (antibody, V domains shown) VH: EVQLVESGGGLVQPGGSLRLSCAASGFTFTGYAIHWVRQAPGKGLEWVARISPANGNTNYADSVKGRFTISADTSKNTAYLQMNSLRAEDTAVYYCARWIGSRELYIMDYWGQGTLVTVSS VL: DIQMTQSPSSLSASVGDRVTITCRASQDVSTAVAWYQQKPGKAPKLLIYSASFLYSGVPSRFSGSGSGTDFTLTISSLQPEDFATYYCQQSYPAPATFGQGTKVEIK | – | – | 0.117 | –
YW508.20.28b (antibody, V domains shown) VH: EVQLVESGGGLVQPGGSLRLSCAASGFTFTRHTINWVRQAPGKGLEWVARISPANGNTNYADSVKGRFTISADTSKNTAYLQMNSLRAEDTAVYYCARWIGSRELYIMDYWGQGTLVTVSS VL: DIQMTQSPSSLSASVGDRVTITCRASQDVSTAVAWYQQKPGKAPKLLIYSASFLYSGVPSRFSGSGSGTDFTLTISSLQPEDFATYYCQQSYRIQPTFGQGTKVEIK | – | – | 0.323 | –
YW508.20.33b (antibody, V domains shown) VH: EVQLVESGGGLVQPGGSLRLSCAASGFTFSSTAIHWVRQAPGKGLEWVARISPANGNTNYADSVKGRFTISADTSKNTAYLQMNSLRAEDTAVYYCARWIGSRELYIMDYWGQGTLVTVSS VL: DIQMTQSPSSLSASVGDRVTITCRASQDVSTAVAWYQQKPGKAPKLLIYSASFLYSGVPSRFSGSGSGTDFTLTISSLQPEDFATYYCQQAYPALHTFGQGTKVEIKR | – | – | 0.0123 | Kd (rhesus PCSK9): 4.09 nM; Kd (Rat PCSK9): 0.0182 nM; Kd (Cyno PCSK9): 0.0624 nM
anti-PCSK9 antibody 508.20.28b (antibody, V domains shown) VH: EVQLVESGGGLVQPGGSLRLSCAASGFTFTRHTINWVRQAPGKGLEWVARISPANGNTNYADSVKGRFTISADTSKNTAYLQMNSLRAEDTAVYYCARWIGSRELYIMDYWGQGTLVTVSS VL: DIQMTQSPSSLSASVGDRVTITCRASQDVSTAVAWYQQKPGKAPKLLIYSASFLYSGVPSRFSGSGSGTDFTLTISSLQPEDFATYYCQQSYRIQPTFGQGTKVEIK | 1.05 | 0.349 | – | –
anti-PCSK9 antibody 508.20.04b (antibody, V domains shown) VH: EVQLVESGGGLVQPGGSLRLSCAASGFTFTGYAIHWVRQAPGKGLEWVARISPANGNTNYADSVKGRFTISADTSKNTAYLQMNSLRAEDTAVYYCARWIGSRELYIMDYWGQGTLVTVSS VL: DIQMTQSPSSLSASVGDRVTITCRASQDVSTAVAWYQQKPGKAPKLLIYSASFLYSGVPSRFSGSGSGTDFTLTISSLQPEDFATYYCQQSYPAPATFGQGTKVEIK | 0.92 | 0.757 | – | –
YW508.20.84 (antibody, V domains shown) VH: EVQLVESGGGLVQPGGSLRLSCAASGFTFTGYAIHWVRQAPGKGLEWVARISPANGNTNYADSVKGRFTISADTSKNTAYLQMNSLRAEDTAVYYCARWIGSRELYIMDYWGQGTLVTVSS VL: DIQMTQSPSSLSASVGDRVTITCRASQDVSTAVAWYQQKPGKAPKLLIYSASFLYSGVPSRFSGSGSGTDFTLTISSLQPEDFATYYCQQSYPAPSTFGQGTKVEIK | – | – | 0.135 | –
YW508.20b (antibody, V domains shown) VH: EVQLVESGGGLVQPGGSLRLSCAASGFTFTGYAIHWVRQAPGKGLEWVARISPANGNTNYADSVKGRFTISADTSKNTAYLQMNSLRAEDTAVYYCARWIGSRELYIMDYWGQGTLVTVSS VL: DIQMTQSPSSLSASVGDRVTITCRASQDVSTAVAWYQQKPGKAPKLLIYSASFLYSGVPSRFSGSGSGTDFTLTISSLQPEDFATYYCQQSYTTPPTFGQGTKVEIK | 15.2 | – | – | –
